From US20240352128A1 (NANJING GENSCRIPT BIOTECH, published 2024) come the findings set out here.

Changes are numbered by the printed parent chain.

B1: pTT5-AR8820-1.1mIgG1Fc (Fc fusion)
heavy: QVQLVESGGGVVQPGGSLRLSCAASGSSISRYAMAWYRQAPGKGRELVAVVRITGSPIYADFVGGRFTISRDNSKNTLYLQMNSLRAEDTAVYYCATGNFNTYTRRYSPSETWGKGTTVTVSSVPRDCGCKPCICTVPEVSSVFIFPPKPKDVLTITLTPKVTCVVVDISKDDPEVQFSWFVDDVEVHTAQTQPREEQFNSTFRSVSELPIMHQDWLNGKEFKCRVNSAAFPAPIEKTISKTKGRPKAPQVYTIPPPKEQMAKDKVSLTCMITDFFPEDITVEWQWNGQPAENYKNTQPIMDTDGSYFVYSKLNVQKSNWEAGNTFTCSVLHEGLHNHHTEKSLSHSPGK
notes: As m24
B2: pTT5-AR8820-1.3mIgG1Fc (Fc fusion)
heavy: B1 heavy with A96N
notes: As m24
B3: pTT5-AR8804-3.2 mIgG1Fc (Fc fusion)
heavy: B1 heavy with I29V, L47W, S56I, G64K
notes: As m24
B4: pTT5-AR8820-2.3mIgG1Fc (Fc fusion)
VHH-Fc: B1 heavy with Q1E, V11L, V12I, A49S, A96N, T97R, K115Q
notes: As m24
B5: pTT5-AR8820-1.2mIgG1Fc (Fc fusion)
heavy: B1 heavy with L47W
notes: As m24
B6: pTT5-AR8820-2.1mIgG1Fc (Fc fusion)
VHH-Fc: B1 heavy with Q1E, V11L, V12I, A49S, K115Q
notes: As m24
B7: pTT5-AR8820-3.3 mIgG1Fc (Fc fusion)
VHH-Fc: B1 heavy with Q1E, V11L, S74A, T77S, A96N, K115Q, T118L
notes: As m24
B8: pTT5-AR8804-3.3mIgG1Fc (Fc fusion)
heavy: B1 heavy with I29V, S56I, G64K, A96N
notes: As m24
B9: pTT5-AR8820-3.1 mIgG1Fc (Fc fusion)
heavy: B1 heavy with Q1E, V11L, S74A, T77S, K115Q, T118L
notes: As m24

T1 sequence (Q8SPW2 17-254): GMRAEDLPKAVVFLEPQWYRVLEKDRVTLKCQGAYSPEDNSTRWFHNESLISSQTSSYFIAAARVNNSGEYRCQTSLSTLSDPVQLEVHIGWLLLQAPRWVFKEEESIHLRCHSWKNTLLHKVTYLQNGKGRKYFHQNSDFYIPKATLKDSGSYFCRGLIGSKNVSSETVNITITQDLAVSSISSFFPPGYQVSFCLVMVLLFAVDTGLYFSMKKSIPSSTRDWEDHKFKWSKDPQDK

The assay has as its target T1, cynomolgus monkey CD16a on HEK293 cells expressing cyno monkey CD16a (constructed by Genscript) (cynomolgus monkey, UniProt Q8SPW2 17-254).
T1 construct: whole, on cells; also called cynomolgus monkey CD16a protein
The assay is described as follows: flow cytometry on HEK293 cells expressing cyno monkey CD16a. As for the experimental part: To determine the cross-reactions of antibody products, HEK293 cells expressing cyno monkey CD16a (constructed by Genscript) were harvested and incubated respectively with serially diluted anti-CD16a humanized sdAb-mIgG1Fcs (max. concentration: 100 nM, 3-fold dilution), followed by fluorophore (iFluor 647)-labeled goat anti mouse IgG (H+L) secondary antibodies (Jackson immuno research; catalog #: 115-605-062). The samples were then analyzed with flow cytometry. Raw data was plotted with GraphPad Prism v6.02 software with four parameters, best-fit values program to analyze the EC₅₀. The molecules of pTT5-AR8804-3.2 mIgG1Fc, pTT5-AR8804-3.3mIgG1Fc, pTT5-AR8820-1.1mIgG1Fc, pTT5-AR8820-1.2mIgG1Fc, pTT5-AR8820-1.3mIgG1Fc, pTT5-AR8820-2.1mIgG1Fc, pTT5-AR8820-2.3mIgG1Fc, pTT5-AR8820-3.1mIgG1Fc and pTT5-AR8820-3.3 mIgG1Fc manifested good cross-reaction with cynomolgus monkey CD16a protein (FIG. 13).
Turning to B1, the binding result was “binds”.

On to B2, for which the binding result is “binds”.

On to B3, for which the binding result is “binds”.

For the molecule B4, the binding result was “binds”.

B5: the binding result is on record as “binds”.

B6: the binding result is reported as “binds”.

In the case of B7, the binding result is on record as “binds”.

As for B8, the binding result is “binds”.

As for B9, the binding result is reported as “binds”.
